Assay results from patent EP3007726B1.

Biological target: tau of P301L tau transgenic mice (4R2N human tau mutated at P301L) (human) (UniProt P10636)
Test: free-tau ELISA on CSF of P301L mice treated with IPN002, against control IgG (Figure 33)

Sequence of UniProt P10636 (P10636 other isoform, or with tags, fused parts or gaps P301L P301L P301L P301L limits assumed): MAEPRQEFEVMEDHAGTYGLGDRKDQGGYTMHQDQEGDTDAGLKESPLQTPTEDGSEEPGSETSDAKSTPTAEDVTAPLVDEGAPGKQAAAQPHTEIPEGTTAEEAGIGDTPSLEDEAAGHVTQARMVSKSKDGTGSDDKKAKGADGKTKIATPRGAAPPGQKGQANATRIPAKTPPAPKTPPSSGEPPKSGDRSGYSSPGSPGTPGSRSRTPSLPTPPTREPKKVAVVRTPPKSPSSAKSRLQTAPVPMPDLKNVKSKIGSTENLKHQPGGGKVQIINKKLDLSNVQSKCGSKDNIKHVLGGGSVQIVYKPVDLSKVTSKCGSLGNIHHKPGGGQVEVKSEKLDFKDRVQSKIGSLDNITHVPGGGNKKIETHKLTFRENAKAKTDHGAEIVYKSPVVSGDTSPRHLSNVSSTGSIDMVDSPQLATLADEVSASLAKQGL

B1: IPN002 (antibody, V domains shown)
VH: EVHLVESGGALVKPGGSLKLSCAASGFSFSKYGMSWVRQTPDKRLEWVATISSSGSRTYYPDSVKGQFTISRDNAKNTLYLQMSSLKSEDTAMYYCSISWDGAMDYWGQGTSVTVSS
VL: DVLMTQTPLSLPVSLGDQASISCKSSQSIVHSNGNTYLEWYLQKPGQSPKLLVYKVSNRFSGVPDRFSGSGSGTDFTLKISRVEAEDLGTYYCFQGSLVPWAFGGGTKLEIK
reduction in levels of the Free Tau (of IPN002) signal in CSF: 96%
